Assay results from the supplement of paper PMC10724198.
± gives the standard deviation of the averaged measurements.

Test system: Saccharomyces cerevisiae
Experiment: protein stability index of tFT-peptide fusion (C-terminal peptide) (PSI (0-1 scale)); higher = more stable (slower turnover)
Settings: genetic background: wild type; temperature: 30 C
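Further: PSI is a weighted mean of sequencing reads over stability bins, variants kept only with over 10 reads, mCherry proximal and sfGFP distal, peptide attached via GGGS linker.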

Row | Sequence | protein stability index
1 | FAECVCVVCPLV | 0.6319 ± 0.0053
2 | GGRCGEGLVREG | 0.702 ± 0.021
3 | APIRRPTCLSEV | 0.708 ± 0.043
4 | DRLNLFSSFEGT | 0.721 ± 0.053
5 | SFILPFISPLLF | 0.565 ± 0.022
6 | EMTRELLMRVSK | 0.704 ± 0.015
7 | RPAFPIPSLYPS | 0.725 ± 0.11
8 | FLASPHPPGLSP | 0.693 ± 0.033
9 | NTPNRNFTYTEN | 0.685 ± 0.038
10 | CFLFLTVSSREG | 0.534 ± 0.03
11 | QPRVEYSSYWAV | 0.644 ± 0.034
12 | RPHEAPTPGPVR | 0.646 ± 0.013
13 | HSLRPPPPPAPT | 0.7146 ± 0.0045
14 | PPTLPPPSPLIL | 0.775 ± 0.11
15 | SLSLSFVLSSCS | 0.721 ± 0.014
16 | PLAPPPLSPSPI | 0.7873 ± 0.0059
17 | GPFRRLRCTAFI | 0.713 ± 0.059
18 | PPPPLLPPPSPL | 0.7 ± 0.032
19 | EEKRKRKSQNEI | 0.702 ± 0.045
20 | FYWFPYYFSHLH | 0.602 ± 0.048
21 | VMVTYCSEVQDR | 0.693 ± 0.011
22 | GPRRLNAYADPF | 0.722 ± 0.082
23 | PAPRLEPRSPNV | 0.676 ± 0.021
24 | WEVGVGRQDVEW | 0.7448 ± 0.0065
25 | GGVYVASQGTFV | 0.673 ± 0.021
26 | FCGFLFRLSSVL | 0.626 ± 0.025

Row | Sequence | protein stability index
27 | IKNIKKKKSKTE | 0.702 ± 0.065
28 | TWIEGGVDRQRG | 0.683 ± 0.074
29 | ALLLPFPPPPPP | 0.559 ± 0.03
30 | GCFVGCDHWGVV | 0.67 ± 0.028
31 | WAGGFGGLGRDT | 0.744 ± 0.0089
32 | GWSLDYGSTGDR | 0.812 ± 0.018
33 | AKDSSPTFTSPH | 0.673 ± 0.032
34 | TYPRPGSSIWLR | 0.572 ± 0.022
35 | PLNHIVHPHRAP | 0.687 ± 0.0052
36 | YILPTPKAFRSF | 0.738 ± 0.17
37 | KSKTYIKKTRKQ | 0.744 ± 0.031
38 | EPIKEKKKMGSR | 0.63 ± 0.056
39 | RVAPITARLAPH | 0.859 ± 0.12
40 | KVGGRGQGVKLG | 0.629 ± 0.034
41 | GRVGSLCGWLWR | 0.722 ± 0.02
42 | RVRQQKIFPSLD | 0.7057 ± 0.0062
43 | LLFSSPPARMCP | 0.786 ± 0.1
44 | INLRENETKQRN | 0.673 ± 0.038
45 | VGGGGSLVVESG | 0.70581 ± 0.00064
46 | QSPRLTSGPQPL | 0.652 ± 0.022
47 | HDSAGVCFHYWL | 0.644 ± 0.011
48 | GGTHCRVCCVLF | 0.659 ± 0.02
49 | LYPNPPLLPCSP | 0.612 ± 0.046
50 | PLLPRTPPLSAT | 0.671 ± 0.0079
51 | VRVEVVVFEGAG | 0.598 ± 0.034
52 | ELLRTGRVLDRE | 0.71 ± 0.0076

Row | Sequence | protein stability index
53 | DGVSRSHFQCVS | 0.708 ± 0.044
54 | VPLSALPPPPPA | 0.703 ± 0.027
55 | PPLPLLPPLPPP | 0.644 ± 0.034
56 | RAVLSNRVEERI | 0.696 ± 0.022
57 | PLIVSPCYSLVP | 0.659 ± 0.014
58 | LGGTRRVGLALV | 0.685 ± 0.057
59 | SAAPVTLSRLPP | 0.699 ± 0.071
60 | GNTQSIEQALLV | 0.752 ± 0.028
61 | LFVSPRPFRSVL | 0.7495 ± 0.0063
62 | LLPSPLSLTFPL | 0.616 ± 0.013
63 | PPPSPPHFTSPP | 0.683 ± 0.006
64 | VVPSMFPGAEVL | 0.691 ± 0.026
65 | TPPLPPSLSPTH | 0.708 ± 0.0085
66 | VSVRLWSGQSAG | 0.672 ± 0.11
67 | KQNQKKREITAG | 0.664 ± 0.055
68 | LPRLTPARPRHH | 0.7 ± 0.1
69 | PPPPSPPLHRPP | 0.738 ± 0.016
70 | GGCGLGGVLEVG | 0.676 ± 0.017
71 | PPPPLPPPPSPA | 0.7911 ± 0.0045
72 | VVEGVFGQRFAG | 0.701 ± 0.033
73 | CVCAIVDGGTFG | 0.723 ± 0.07
74 | EEMMGGAETLHQ | 0.649 ± 0.036
75 | LFSCVFFLCLNF | 0.512 ± 0.0074
76 | GCFRGLYVVRGG | 0.647 ± 0.039
77 | ASRSGVPGVRVG | 0.685 ± 0.027
78 | PNRKCSGTFAAS | 0.65573 ± 0.00064

Row | Sequence | protein stability index
79 | SPRPAPPRSTPP | 0.67 ± 0.063
80 | PCPSPPALPLAP | 0.696 ± 0.056
81 | CGWTATRTCGLV | 0.7541 ± 0.0063
82 | WGYEGGWGGHGT | 0.659 ± 0.025
83 | KKSGISSGPNDT | 0.689 ± 0.043
84 | FAPFVPGPSIKY | 0.705 ± 0.074
85 | DSSKFYTPATLL | 0.693 ± 0.048
86 | QLVSNNCSLVMC | 0.532 ± 0.02
87 | GACSIVFYKVKR | 0.653 ± 0.048
88 | LWENVVLVEGGK | 0.704 ± 0.069
89 | KKTKKGINVEER | 0.662 ± 0.0097
90 | CHVRSSILINRT | 0.65 ± 0.1
91 | SPAPPPPVTPPL | 0.662 ± 0.013
92 | RPGRSDRCLRWS | 0.673 ± 0.017
93 | YASRVLCVGLVL | 0.636 ± 0.094
94 | LGKGRYNIKINK | 0.695 ± 0.016
95 | VPPPLRPLPPPP | 0.629 ± 0.14
96 | DKKKKTKINNKK | 0.698 ± 0.01
97 | RRGTEGLGGGVG | 0.6265 ± 0.0052
98 | GFARICVLLPSS | 0.727 ± 0.039
99 | LDEQKLKLPPVK | 0.736 ± 0.024
100 | MLGRLLDRCYDY | 0.678 ± 0.029
101 | GVGSGNMEEEGQ | 0.679 ± 0.034
